The text below walks through data of US20150104459A1.

Experiment [1] concerns the target recombinant soluble homotrimeric HA of A/common magpie/Hong Kong/5052/07 (H5N1) (Influenza A virus A/common magpie/Hong Kong/5052/2007 (H5N1)). The experiment is described as follows: HA microarray, control mAb.
Experiment [2] addresses M2 protein of influenza A/Japan/305/57 (H2N2), on inactivated whole virions (influenza A virus A/Japan/305/57 (H2N2)). The experiment is described as follows: ELISA, positive control antibody on inactivated whole virions.

Chain of TCN-032 (8I10) (antibody) (VH): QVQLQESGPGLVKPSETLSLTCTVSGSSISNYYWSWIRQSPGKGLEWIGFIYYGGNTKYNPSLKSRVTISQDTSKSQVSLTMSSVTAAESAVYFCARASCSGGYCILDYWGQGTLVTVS
Chain of TCN-032 (8I10) (antibody) (VL): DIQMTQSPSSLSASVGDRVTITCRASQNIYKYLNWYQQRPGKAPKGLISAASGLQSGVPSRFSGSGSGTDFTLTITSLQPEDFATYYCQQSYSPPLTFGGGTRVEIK

TCN-202 (2N9) (antibody): the Trimeric HA Binding RLU in experiment [1] was found to be 162 RLU.
The substance TCN-032 (8I10) (antibody) came in with an ELISA virus binding (OD450) in experiment [2] of 3.61 OD450.
